# In the supplement of paper PMC9112550, “Optimization of the antimicrobial peptide Bac7 by deep mutational scanning” (BMC Biology, 2022):
# Tested on: Escherichia coli TOP10
# Test: shrunken log2 fold change of peptide-encoding DNA abundance (4.5 h post-induction vs induction); higher = less antimicrobial activity (less host growth inhibition)
# Settings: time post-induction: 4.5 h; library: site-saturation at positions 5, 18, 19, 20
# 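Also: peptides expressed intracellularly from a pBAD plasmid library in pooled LB shake-flask culture, induced with 0.3% L-arabinose, DNA abundance read by NGS, three biological replicates, DESeq2 with apeglm shrinkage.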
row,Sequence,shrunken log2 fold change
1,RRIRLRPPRLPRPRPRPDSCPRP,-0.851
2,RRIRHRPPRLPRPRPRPDSCPRP,-0.164
3,RRIRERPPRLPRPRPRPERIPRP,-0.0271
4,RRIRQRPPRLPRPRPRPKMQPRP,-0.134
5,RRIRWRPPRLPRPRPRPLQEPRP,0.36
6,RRIRVRPPRLPRPRPRPRQCPRP,0.33
7,RRIRERPPRLPRPRPRPCGAPRP,0.469
8,RRIRTRPPRLPRPRPRPWNCPRP,-0.214
9,RRIRWRPPRLPRPRPRPACFPRP,0.513
10,RRIRLRPPRLPRPRPRPVIIPRP,-0.242
11,RRIRARPPRLPRPRPRPTIHPRP,-0.0543
12,RRIRNRPPRLPRPRPRPMSRPRP,-0.094
13,RRIRLRPPRLPRPRPRPVHIPRP,-0.182
14,RRIRLRPPRLPRPRPRPPRNPRP,0.356
15,RRIRARPPRLPRPRPRPPQYPRP,0.33
16,RRIRARPPRLPRPRPRPAYQPRP,0.106
17,RRIRDRPPRLPRPRPRPHDWPRP,0.807
18,RRIRTRPPRLPRPRPRPVIHPRP,0.0146
19,RRIRWRPPRLPRPRPRPYGLPRP,-0.23
20,RRIRCRPPRLPRPRPRPTIMPRP,-0.562
21,RRIRCRPPRLPRPRPRPLPLPRP,-0.0103
22,RRIRRRPPRLPRPRPRPCFIPRP,-0.127

row,Sequence,shrunken log2 fold change
1,RRIRRRPPRLPRPRPRPRTNPRP,0.482
2,RRIRVRPPRLPRPRPRPVATPRP,0.212
3,RRIRLRPPRLPRPRPRPIIPPRP,-0.195
4,RRIRGRPPRLPRPRPRPVLEPRP,0.795
5,RRIRYRPPRLPRPRPRPHVFPRP,-0.0822
6,RRIRFRPPRLPRPRPRPYRTPRP,-0.165
7,RRIRSRPPRLPRPRPRPSPHPRP,-0.194
8,RRIRARPPRLPRPRPRPTLIPRP,0.573
9,RRIRYRPPRLPRPRPRPRLMPRP,-0.0571
10,RRIRIRPPRLPRPRPRPCFTPRP,-0.519
11,RRIRVRPPRLPRPRPRPDASPRP,0.0719
12,RRIRWRPPRLPRPRPRPITTPRP,0.0992
13,RRIRNRPPRLPRPRPRPGDVPRP,-0.0732
14,RRIRVRPPRLPRPRPRPFGPPRP,-0.543
15,RRIRKRPPRLPRPRPRPRLSPRP,0.0586
16,RRIRVRPPRLPRPRPRPTVQPRP,-0.0375
17,RRIRWRPPRLPRPRPRPIIQPRP,-0.151
18,RRIRDRPPRLPRPRPRPSWFPRP,-0.192
19,RRIRIRPPRLPRPRPRPKMAPRP,-0.179
20,RRIRVRPPRLPRPRPRPVNAPRP,-0.0836
21,RRIRYRPPRLPRPRPRPVFVPRP,-0.458
22,RRIRFRPPRLPRPRPRPRNSPRP,0.168

row,Sequence,shrunken log2 fold change
1,RRIRQRPPRLPRPRPRPCTLPRP,-0.56
2,RRIRYRPPRLPRPRPRPKMPPRP,-0.206
3,RRIRNRPPRLPRPRPRPVWPPRP,0.199
4,RRIRPRPPRLPRPRPRPYEDPRP,-0.163
5,RRIRLRPPRLPRPRPRPQAFPRP,0.0474
6,RRIRARPPRLPRPRPRPRPWPRP,0.499
7,RRIRERPPRLPRPRPRPIISPRP,-0.209
8,RRIRCRPPRLPRPRPRPRCFPRP,-0.158
9,RRIRRRPPRLPRPRPRPGNGPRP,0.372
10,RRIRSRPPRLPRPRPRPSATPRP,0.168
11,RRIRHRPPRLPRPRPRPNTDPRP,-0.438
12,RRIRGRPPRLPRPRPRPGARPRP,0.953
13,RRIRWRPPRLPRPRPRPDDLPRP,-0.024
14,RRIRFRPPRLPRPRPRPFPHPRP,-0.142
15,RRIRPRPPRLPRPRPRPYDLPRP,-0.293
16,RRIRQRPPRLPRPRPRPVRLPRP,-0.0825
17,RRIRVRPPRLPRPRPRPFTHPRP,-0.222
18,RRIRHRPPRLPRPRPRPICEPRP,-0.369
19,RRIRIRPPRLPRPRPRPRNYPRP,0.0483
20,RRIRRRPPRLPRPRPRPGDTPRP,0.0234
21,RRIRYRPPRLPRPRPRPKIPPRP,-0.21
22,RRIRCRPPRLPRPRPRPVVQPRP,-0.235

row,Sequence,shrunken log2 fold change
1,RRIRDRPPRLPRPRPRPKVQPRP,0.116
2,RRIRTRPPRLPRPRPRPDNVPRP,-0.881
3,RRIRPRPPRLPRPRPRPSDGPRP,-0.26
4,RRIRFRPPRLPRPRPRPQMMPRP,-0.313
5,RRIRRRPPRLPRPRPRPPVKPRP,0.369
6,RRIRDRPPRLPRPRPRPTFNPRP,-0.0925
7,RRIRQRPPRLPRPRPRPSGHPRP,-0.0673
8,RRIRIRPPRLPRPRPRPAPIPRP,-0.0266
9,RRIRVRPPRLPRPRPRPQDMPRP,-0.736
10,RRIRMRPPRLPRPRPRPRGCPRP,1.08
11,RRIRDRPPRLPRPRPRPYSEPRP,-0.0337
12,RRIRMRPPRLPRPRPRPFLMPRP,-0.0208
13,RRIRHRPPRLPRPRPRPVASPRP,-0.122
14,RRIRRRPPRLPRPRPRPPYHPRP,0.124
15,RRIRERPPRLPRPRPRPGGGPRP,0.855
16,RRIRARPPRLPRPRPRPIVTPRP,0.155
17,RRIRMRPPRLPRPRPRPHMCPRP,0.000241
18,RRIRVRPPRLPRPRPRPWLYPRP,-0.157
19,RRIRKRPPRLPRPRPRPWRDPRP,0.188
20,RRIRHRPPRLPRPRPRPGGVPRP,0.237
21,RRIRGRPPRLPRPRPRPQETPRP,-0.0108
22,RRIRQRPPRLPRPRPRPWYPPRP,-0.278

row,Sequence,shrunken log2 fold change
1,RRIRLRPPRLPRPRPRPRVYPRP,0.224
2,RRIRRRPPRLPRPRPRPMCKPRP,0.141
3,RRIRLRPPRLPRPRPRPHRHPRP,-0.361
4,RRIRCRPPRLPRPRPRPAPYPRP,0.0992
5,RRIRYRPPRLPRPRPRPPQHPRP,-0.171
6,RRIRHRPPRLPRPRPRPYHQPRP,-0.981
7,RRIRQRPPRLPRPRPRPTNMPRP,-0.521
8,RRIRRRPPRLPRPRPRPVGWPRP,0.666
9,RRIRWRPPRLPRPRPRPMKHPRP,-0.0254
10,RRIRNRPPRLPRPRPRPNAAPRP,-0.149
11,RRIRQRPPRLPRPRPRPWETPRP,-0.00136
12,RRIRQRPPRLPRPRPRPLHEPRP,0.149
13,RRIRFRPPRLPRPRPRPNPYPRP,-0.238
14,RRIRHRPPRLPRPRPRPPLDPRP,0.372
15,RRIRFRPPRLPRPRPRPSPDPRP,-0.0261
16,RRIRARPPRLPRPRPRPMDYPRP,-0.407
17,RRIRRRPPRLPRPRPRPQVKPRP,0.132
18,RRIRRRPPRLPRPRPRPQHMPRP,-0.296
19,RRIRERPPRLPRPRPRPKHLPRP,-0.202
20,RRIRYRPPRLPRPRPRPIWLPRP,-0.175
21,RRIRLRPPRLPRPRPRPIGSPRP,-0.0107
